T1: Biotinylated Human BCMA/TNFRSF17 Protein, His,Avitag (human, UniProt Q02223 1-54, biotinylated (Avitag))
T1 construct: Bought recombinant protein; also called Human BCMA-his-Bio; Human-BCMA-his-Bio
T1 sequence (looked up): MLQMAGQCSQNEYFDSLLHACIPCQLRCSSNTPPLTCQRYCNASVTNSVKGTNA

T2: Mouse BCMA/TNFRSF17 Protein, His Tag (mouse, UniProt O88472 1-49)
T2 construct: Bought recombinant protein; also called Mouse-BCMA-his; 鼠的BCMA蛋白
T2 chain (looked up): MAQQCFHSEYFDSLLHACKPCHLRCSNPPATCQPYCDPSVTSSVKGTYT

T3: BCMA on cells (293CT-BCMA, MM.1S) (UniProt Q02223 1-184, limits assumed)
T3 construct: whole, on cells; also called 细胞膜表面天然状态的BCMA
T3 sequence (looked up): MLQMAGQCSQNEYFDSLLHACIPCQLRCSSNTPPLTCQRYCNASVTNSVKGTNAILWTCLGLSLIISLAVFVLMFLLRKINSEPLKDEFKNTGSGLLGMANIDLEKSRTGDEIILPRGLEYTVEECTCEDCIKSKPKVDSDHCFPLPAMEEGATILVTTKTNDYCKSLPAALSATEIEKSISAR

B1: Clone 41 (scFv)
scFv: QSVLTQPPSVSGAPGQTVTISCTGSSSNIGAGYIVNWYQQLPGTAPKLLIYFTGNRPSGVPGRFSGSRSGTSASLAITRLQAEDEADYYCQSFDRSLGGYVFGTATKVTVLGSRGGGGSGGGGSGGGGSLEMAQLQLQESGPGLVKPSETLSLTCTVSGGSISSSSYYWGWIRQPPGKGLEWIGSISYSGSTYYNPSLKSRVTISVDTSKNQFSLKLSSVTAADTAVYYCARDRGDTILDVWGQGTMVTVSS
notes: The fusion to the phage coat protein is not described; also called 噬菌体单克隆Clone 41; Clone 41单链抗体
B2: mAb 41 (Fc fusion)
chain: QSVLTQPPSVSGAPGQTVTISCTGSSSNIGAGYIVNWYQQLPGTAPKLLIYFTGNRPSGVPGRFSGSRSGTSASLAITRLQAEDEADYYCQSFDRSLGGYVFGTATKVTVLGSRGGGGSGGGGSGGGGSLEMAQLQLQESGPGLVKPSETLSLTCTVSGGSISSSSYYWGWIRQPPGKGLEWIGSISYSGSTYYNPSLKSRVTISVDTSKNQFSLKLSSVTAADTAVYYCARDRGDTILDVWGQGTMVTVSS
notes: also called Clone 41 IgG; 抗BCMA IgG (Clone 41); not shown: Human IgG4 Fc

Tests used:
[1] = biological target: T1, Biotinylated Human BCMA/TNFRSF17 …; assay: phage ELISA
[2] = biological target: T2, Mouse BCMA/TNFRSF17 Protein, His Tag; assay: phage ELISA
[3] = biological target: T3, BCMA on cells (293CT-BCMA, MM.1S); assay: phage flow cytometry on 293CT-BCMA cells
[4] = biological target: T3, BCMA on cells (293CT-BCMA, MM.1S); assay: flow cytometry titration on 293CT-BCMA and MM.1S cells

Row | Binder | binding result [1] | binding result [2] | binding result [3] | binding result [4]
1 | B1 | binds | no binding | binds | –
2 | B2 | – | – | – | binds

From patent CN114891108A (SHANGHAI XUNLU BIO TECH CO LTD, dated 2022)
